What was measured:
Assay in all cases: cell-based or functional assay
M64-LAEIR = target: M64-LAEIR
M64-EAEIR = target: M64-EAEIR
M64-DAEIR = target: M64-DAEIR
M64-AAEIR = target: M64-AAEIR
M64-FAEIR = target: M64-FAEIR
[1] = target: wild-type human carbonic anhydrase II (hCAII) protein (human) (UniProt P00918)

Row | Substance | IC50 (inhibition of pNPA hydrolysis, colorimetric assay) (M64-LAEIR) | IC50 (inhibition of pNPA hydrolysis, colorimetric assay) (M64-EAEIR) | IC50 (inhibition of pNPA hydrolysis, colorimetric assay) (M64-DAEIR) | IC50 (inhibition of pNPA hydrolysis, colorimetric assay) (M64-AAEIR) | IC50 (inhibition of pNPA hydrolysis, colorimetric assay) (M64-FAEIR) | IC50 (µM), hCAII functional assay [1]
1 | SEQ ID NO: 58 (wild-type hCAI according to the heading of Table 11) (from UniProt P00915 5-261) (enzyme) | 0.016 µM | 1.09 µM | 0.136 µM | 0.109 µM | 0.012 µM | –
2 | FAAAE (peptide) | – | – | – | – | – | 152 µM
